Assay results reported in patent US8859026B2, “Method for reducing methoxypyrazines in grapes and grape products” (Brock University, priority 2009, dated 2014).
Changes are numbered by the printed parent chain. Where two headings read alike, the source gives them in different places. Blank lines part the entries; values can stand above or below the molecule they belong to.

Columns and labels:
piglet OBP = target: T1, piglet OBP (Sus scrofa, UniProt P81245); test: Competitive fluorescent binding assay: displacement of 1-AMA from piglet OBP by odorants IPMP and IBMP; set-up: species or system porcine
T1 construct: made in house; host or cells: Pichia pastoris GS115 (pPIC9, alpha-mating factor secretion signal)
T1 sequence (P81245 with tags, fused parts or gaps): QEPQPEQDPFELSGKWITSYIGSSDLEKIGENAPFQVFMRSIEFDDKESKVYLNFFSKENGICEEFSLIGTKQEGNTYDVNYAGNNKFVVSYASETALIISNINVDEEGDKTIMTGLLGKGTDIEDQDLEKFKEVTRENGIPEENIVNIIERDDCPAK
Protocol: The interaction of odorants with AMA complex was examined by monitoring the decrease in fluorescence intensity of protein/1-AMA complex upon the addition of competitor compounds.
In competitive binding assays, 1-AMA (10 μM) was equilibrated with protein (2 μM) at pH 7.2 50 mM sodium phosphate buffer and pH 3.0 50 mM citrate phosphate buffer, and titrated with increasing concentrations of odorants (0-100 μM) solubilized in 10% v/v methanol.
The affinity of OBPs for odorants was estimated by plotting the decrease of intensity of 1-AMA fluorescence at the emission maximum, (22). Odorant concentrations causing fluorescence decay to half-maximal intensity (IC50 values) were determined from the plot of (I−Imin)/(I0−Imin) against the competitor concentration; I0 is the maximum of fluorescence intensity of the protein/1-AMA complex; I is the fluorescence intensity after addition of an aliquot of competitor, and Imin the fluorescence intensity at saturating concentration of the competitor.

[1] = Intrinsic fluorescence of human OBPIIaα at pH 7.2 and pH 3.0; format: physicochemical; conditions: pH 3.0 vs pH 7.2
[2] = Binding of human OBPIIaα to fluorescent probes 1,8 ANS and 1-AMA; conditions: pH 7.2 and 3.0
Protocol: The excitation wavelength of 372 nm was used for ANS and fluorescence emission intensity was monitored at 475 nm. […] The excitation wavelength of 290 nm was used and fluorescence emission intensity was monitored at 490 nm.
Fluorescence ligand binding experiments were performed on a Photon Technology International (London, Canada) Quanta Master Model QM2001 fluorometer at room temperature (19-20° C.), using 1 cm light path quartz cuvettes (Hellma). Slit width of 2 nm was used for excitation and emission for assaying a proteins except ratOBP1F, for which excitation and emission slit width of 6 nm was used.

[3] = physiological pH, published values; read-out: apparent Kd for IBMP / MPs, literature; cited from earlier work
[4] = Protein-MP binding reaction, complex removed by 10 kDa cut-off PES membrane filtration, free IBMP by HS SPME GC/MS
Protocol: (§1) The freeze dried preparations of pIOBP and mMUPII were resuspended in phosphate citrate buffers at pH 3.0, 3.5 or 4.0 or phosphate buffer at pH 7.2, to final concentrations between 40-50 μM. The protein solutions, in a 2 ml volume, were spiked with IBMP or IPMP at 300 ng/l and allowed to incubate in a glass vial for 2 h, at RT on a gel shaker. In binding reactions using bentonite to remove the protein-MP complex, the binding reactions were performed in pH 3.5 and pH 4 using bentonite (3 g/l) to remove the protein and protein-ligand complex. To remove any residual bentonite from the reaction, samples were also filtered through a 0.22 μm Durapore filter unit (Millipore). In another assay using a 10 kDa cutoff filter to remove the protein-MP complex, the binding reactions were performed in buffer at pH 3 and pH 7.2. The reactions were centrifuged through a 10 KDa molecular weight cut-off (10MWCO) Omega filter unit made of polyethersulfone (PALL Life Sciences) to separate the proteins and bound MP from the free MP fraction. The concentration of free (unbound) MP fraction was then determined using HS SPME GC/MS. The limit of quantification for the compound IBMP was determined to be 6 ng/L and for IPMP was 2 ng/L, based on 10 times signal/noise. The limit of detection for MPs in the present system is 1.8 ng/L for IBMP and 0.6 ng/L for IPMP as calculated based on 3 times the signal/noise ratio. The data has been reported to the limit of quantification in the figures.
(§2) For the membrane filtration trials, the starting concentration of MPs in the reaction were tested, the free MPs after the 10MWCO filtration without addition of protein were tested, and the free MPs in solution after the protein binding reaction and filtration were tested.

[5] = Protein-MP binding reaction, complex removed by 10 kDa cut-off PES membrane filtration, free IPMP by HS SPME GC/MS
Protocol: as §1, §2

[6] = Protein-MP binding reaction, complex removed by bentonite fining and 0.22 μm filtration, free IBMP by GC/MS; conditions: Chardonnay Juice at pH 3.5
Protocol: as §1, with “The” for “The freeze dried preparations of pIOBP and mMUPII were resuspended in phosphate citrate buffers at pH 3.0, 3.5 or 4.0 or phosphate buffer at pH 7.2, to final concentrations between 40-50 μM. The”, “figures. […]” for “figures.”

[7] = pH of binding: 7.4; cited from earlier work

IC50 (piglet OBP; pH 3.0): 5.98 µM
Kd (piglet OBP; pH 3.0, calculated from IC50, read-out: Kd for piglet OBP): 2.34 µM
Kd (piglet OBP; pH 3, read-out: apparent Kd for pIOBP): 2.1 µM
higher affinity for pIOBP at pH 3.0 compared with pH 7.2 (piglet OBP; pH 3.0 vs pH 7.2): about 2 fold
IC50 (piglet OBP; pH 7.2): 32.8 µM
Kd (piglet OBP; pH 7.2, calculated from IC50, read-out: Kd for piglet OBP): 4.46 µM
Kd (piglet OBP; pH 7.2, read-out: apparent Kd for pIOBP): 4.5 µM
Molecule: COc1nccnc1C(C)C [IPMP, 2-isopropyl-3-methoxypyrazine]

binding to fluorescent probes [2]: shows binding
B1: human OBPIIaα: human odorant binding protein IIa alpha (Genbank AJ251021, UniProt Q9NY56), recombinant from P. pastoris (protein, UniProt Q9NY56 16-170, looked up)
Odorant-binding protein 2a: LSFTLEEEDITGTWYVKAMVVDKDFPEDRRPRKVSPVKVTALGGGNLEATFTFMREDRCIQKKILMRKTEEPGKFSAYGGRKLIYLQELPGTDDYVFYCKDQRRGGLRYMGKLVGRNPNTNLEALEEFKKLVQHKGLSEEDIFMPLQTGSCVLEH
modifications: recombinant from Pichia pastoris
protein conformation on acidification (tryptophan emission maximum) [1]: does not modify protein conformation
Kd [3]: 0.9 to 1.1 µM

IBMP concentration after protein treatment and 10 MWCO filtration ([4]; Chardonnay juice, limit of quantification): 6 ng/L
IBMP concentration after protein treatment and 10 MWCO filtration ([4]; pH 3.0 buffer, 300 ng/l spike, limit of quantification): 6 ng/L
IBMP concentration after protein treatment and 10 MWCO filtration ([4]; pH 7.2 buffer, 300 ng/l spike): 11 ng/L
IPMP concentration after protein treatment and 10 MWCO filtration ([5]; juice): 4 ng/L
IPMP concentration after protein treatment and 10 MWCO filtration ([5]; pH 3.0 buffer): 3 ng/L
IPMP concentration after protein treatment and 10 MWCO filtration ([5]; pH 7.2 buffer): 3 ng/L
IBMP reduction by protein beyond bentonite and filter [6]: further reduced
B2: mouse MUPII: mouse major urinary protein isoform II (Genbank AJ309921, Uniprot P11589), recombinant from P. pastoris (protein, UniProt P11589 19-180, looked up)
Major urinary protein 2: EEASSTGRNFNVEKINGEWHTIILASDKREKIEDNGNFRLFLEQIHVLEKSLVLKFHTVRDEECSELSMVADKTEKAGEYSVTYDGFNTFTIPKTDYDNFLMAHLINEKDGETFQLMGLYGREPDLSSDIKERFAKLCEEHGILRENIIDLSNANRCLQARE
modifications: recombinant from Pichia pastoris
Kd [3]: 0.94 µM

B3: mouse MUPI: mouse major urinary protein I (Uniprot P11588), differs from MUPII by three amino acid residues (protein, UniProt P11588 19-180, looked up)
Major urinary protein 1: B2 Major urinary protein 2 with K50N, K136Q, E140K
binding of methoxypyrazines [7]: binds both IPMP and IBMP
